Values belong to the molecule of their own block, whether it stands above or below them.
How the values were obtained:
[1] = target: ABCG2^Myc-TM5*L3* (full-length ABCG2 with TM5—ECL3 replaced by TM1—ECL1) (human) (UniProt Q9UNQ0); assay: cross-linking
[2] = target: ABCG2^Myc-ECL3* (full-length ABCG2 with ECL3 replaced by ECL1) (human) (UniProt Q9UNQ0); assay: cross-linking
[3] = target: ABCG2^Myc-TM6* (ABCG2 with TM6 replaced by TM2) (human) (UniProt Q9UNQ0); assay: cross-linking
[4] = target: ABCG2^Myc-TM5* (ABCG2 with TM5 replaced by TM1) (human) (UniProt Q9UNQ0); assay: cross-linking
[5] = target: ABCG2^Myc-L3*TM6* (full-length ABCG2 with ECL3—TM6 replaced by ECL1—TM2) (human) (UniProt Q9UNQ0); assay: cross-linking
[6] = target: T1, HA-tagged full-length ABCG2 (ABCG2^HA-WT) (human, UniProt Q9UNQ0 1-655, R482G); assay: co-IP
T1 sequence (looked up): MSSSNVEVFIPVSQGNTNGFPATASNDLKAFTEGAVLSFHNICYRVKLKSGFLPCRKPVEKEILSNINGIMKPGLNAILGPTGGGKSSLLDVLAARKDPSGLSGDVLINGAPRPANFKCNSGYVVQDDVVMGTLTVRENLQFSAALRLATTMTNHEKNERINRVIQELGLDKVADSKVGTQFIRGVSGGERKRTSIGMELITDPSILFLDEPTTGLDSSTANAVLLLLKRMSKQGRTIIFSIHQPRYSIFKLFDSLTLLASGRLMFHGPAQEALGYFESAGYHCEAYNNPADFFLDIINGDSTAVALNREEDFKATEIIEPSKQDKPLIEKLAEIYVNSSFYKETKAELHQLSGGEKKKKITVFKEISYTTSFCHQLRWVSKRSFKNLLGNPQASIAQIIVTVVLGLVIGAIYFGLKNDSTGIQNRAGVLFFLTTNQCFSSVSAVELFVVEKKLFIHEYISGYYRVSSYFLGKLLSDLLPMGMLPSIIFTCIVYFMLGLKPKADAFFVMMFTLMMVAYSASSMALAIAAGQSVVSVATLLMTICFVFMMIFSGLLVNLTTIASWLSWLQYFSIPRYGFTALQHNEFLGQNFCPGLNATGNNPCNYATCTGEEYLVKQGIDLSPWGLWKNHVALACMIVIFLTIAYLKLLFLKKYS

- percent of the protein cross-linked as dimer [3]: 18%
- percent of the protein cross-linked as tetramer [3]: 49%
- percent of the protein cross-linked as trimer [3]: 29%
Molecule: ABCG2^Myc-TM6* (ABCG2 with TM6 replaced by TM2) (from UniProt Q9UNQ0 1-655) (natural protein)

- percent of the protein cross-linked as dimer [5]: 11%
- percent of the protein cross-linked as hexamer [5]: 89%
Molecule: ABCG2^Myc-L3*TM6* (full-length ABCG2 with ECL3—TM6 replaced by ECL1—TM2) (from UniProt Q9UNQ0 1-655) (natural protein)

The next lines start with the molecule.

Molecule: ABCG2^Myc-TM5*L3* (full-length ABCG2 with TM5—ECL3 replaced by TM1—ECL1) (from UniProt Q9UNQ0 1-655) (natural protein)
- percent of the protein cross-linked as dimer [1]: 29%
- percent of the protein cross-linked as pentamer [1]: 51%
- percent of the protein cross-linked as trimer [1]: 8%

Molecule: ABCG2^Myc-ECL3* (full-length ABCG2 with ECL3 replaced by ECL1) (from UniProt Q9UNQ0 1-655) (natural protein)
- percent of the protein cross-linked as dimer [2]: 26%
- percent of the protein cross-linked as pentamer [2]: 43%
- percent of the protein cross-linked as trimer [2]: 11%

Molecule: ABCG2^Myc-TM5* (ABCG2 with TM5 replaced by TM1) (from UniProt Q9UNQ0 1-655) (natural protein)
- percent of the protein cross-linked as dimer [4]: 31%
- percent of the protein cross-linked as tetramer [4]: 10%
- percent of the protein cross-linked as trimer [4]: 32%

B1: Myc-tagged wild-type ABCG2 (ABCG2^Myc-WT) (natural protein, human, UniProt Q9UNQ0 1-655, looked up)
chain: T1 sequence (looked up)
- Co-IP with WT, relative to the wild-type construct [6]: 100%

Source: article PMC8276268 (Biochemistry, 2012)
